Laboratory results: patent US20260193375A1 (NORMUNITY, published 2026)

T1: Human LY6K (R&D Systems) (human, UniProt Q17RY6 18-138, limits assumed)
T1 construct: Bought from R&D Systems, coated on ELISA plates; also called hLY6K
T1 sequence: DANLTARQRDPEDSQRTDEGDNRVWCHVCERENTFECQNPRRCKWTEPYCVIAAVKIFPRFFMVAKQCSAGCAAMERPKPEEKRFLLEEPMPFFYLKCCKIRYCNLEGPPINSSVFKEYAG

T2: human LY6E (R&D Systems) (human, UniProt Q16553 21-101, limits assumed)
T2 construct: also called hLY6E
T2 sequence (looked up): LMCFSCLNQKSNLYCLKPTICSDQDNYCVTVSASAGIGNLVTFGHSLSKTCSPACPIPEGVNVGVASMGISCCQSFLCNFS

T3: cell-surface anchored LY6K (human, UniProt Q17RY6 18-138)
T3 construct: the cell is named under assay; also called LY6K on target cells
T3 sequence: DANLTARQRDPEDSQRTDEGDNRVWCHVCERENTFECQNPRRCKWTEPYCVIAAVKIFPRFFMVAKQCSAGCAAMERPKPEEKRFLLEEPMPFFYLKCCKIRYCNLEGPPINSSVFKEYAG

T4: recombinant human LY6K (Wuxi) (human, UniProt Q17RY6 18-138)
T4 construct: Limits of the construct not clearly stated; also called Human LY6K (Wuxi LY^KGLY138(1-38TR)_8His)
T4 sequence: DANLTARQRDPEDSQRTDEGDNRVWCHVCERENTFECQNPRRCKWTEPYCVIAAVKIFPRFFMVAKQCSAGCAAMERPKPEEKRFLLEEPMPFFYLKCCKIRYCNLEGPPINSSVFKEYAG

T5: hLY6K-his (human, UniProt Q17RY6 18-138, limits assumed)
T5 construct: not shown: his tag
T5 sequence: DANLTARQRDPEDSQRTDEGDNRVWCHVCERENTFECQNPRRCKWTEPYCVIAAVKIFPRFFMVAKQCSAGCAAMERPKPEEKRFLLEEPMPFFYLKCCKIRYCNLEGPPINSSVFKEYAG

T6: hLY6K-mFc (human, UniProt Q17RY6 18-138)
T6 construct: not shown: mFc
T6 sequence: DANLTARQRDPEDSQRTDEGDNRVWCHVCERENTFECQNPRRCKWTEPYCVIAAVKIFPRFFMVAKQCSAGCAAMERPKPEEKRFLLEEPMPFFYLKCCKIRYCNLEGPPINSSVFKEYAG

T7: Ly6D
T7 chain: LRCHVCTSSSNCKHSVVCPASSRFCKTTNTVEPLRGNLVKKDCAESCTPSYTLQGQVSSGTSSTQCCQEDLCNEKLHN

T8: Ly6H
T8 chain: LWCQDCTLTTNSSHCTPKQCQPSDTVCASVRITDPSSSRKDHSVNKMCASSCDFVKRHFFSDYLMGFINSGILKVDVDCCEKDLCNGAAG


How the values were obtained:
[1] = target: T1, Human LY6K (R&D Systems); assay: ELISA, coated antigen, IgG1 at 10 ug/ml
[2] = target: T9, cynomolgus monkey LY6K (R&D Systems) (cynomolgus monkey); assay: ELISA, coated antigen, IgG1 at 10 ug/ml
T9 construct: also called cyLY6K

[3] = target: T10, rat LY6K (R&D Systems) (rat); assay: ELISA, coated antigen, IgG1 at 10 ug/ml
T10 construct: also called rLY6K

[4] = target: T2, human LY6E (R&D Systems); assay: ELISA, coated antigen, IgG1 at 10 ug/ml
[5] = target: T3, cell-surface anchored LY6K; assay: flow cytometry on target cells, MFI fitted in Prism
[6] = target: T4, recombinant human LY6K (Wuxi); assay: ELISA, LY6K coated at 2 ug/mL, HRP-labelled mAb titrated
[7] = target: T5, hLY6K-his; assay: SPR (Carterra LSA), mAb captured on anti-human IgG-Fc, antigen as analyte
[8] = target: T6, hLY6K-mFc; assay: as above
[9] = target: T7, Ly6D; assay: ELISA, antigen coated on the plate, antibody as human IgG1, anti-human F(ab)2 HRPO
[10] = target: T8, Ly6H; assay: as above
[11] = target: T2, human LY6E (R&D Systems); assay: as above
[12] = target: T4, recombinant human LY6K (Wuxi); assay: capture ELISA (MSD): antibody coated as capture at 2 µg/mL, recombinant human LY6K titrated, sulfo-tagged polyclonal anti-hLY6K (AF6648) for detection; EC50 is the LY6K concentration
[13] = target: cyLY6K-mFc (cynomolgus monkey); assay: SPR (Carterra LSA), mAb captured on anti-human IgG-Fc, antigen as analyte
[14] = target: T3, cell-surface anchored LY6K; assay: flow cytometry on target cells, MFI fitted in Prism; flow cytometry, live target cells, 4 degrees C

% of maximum of commercial anti-LY6K mAb on human LY6K [1]	% of maximum of commercial anti-LY6K mAb on human LY6K [2]	% of maximum of commercial anti-LY6K mAb on human LY6K [3]	% of maximum of commercial anti-LY6K mAb on human LY6K [4]	EC50 [5]	EC50 [6]	Kd [7]	Kd [8]	binding result [9]	binding result [10]	binding result [11]	EC50 [12]	Kd [13]	EC50 [14]	Binder
102%	1.1%	0%	7.8%	58.1 nM	16.2 nM	6.31 nM	0.185 nM							anti-LY6K antibody 3705 (antibody, V domains shown) VH: EVQLVESGGGLVHPGRSLRLSCAASGFTFDDYAMHWVRQAPGKGLEWVSGISWKNGKIDYADSVKGRFITSRDNAKNSLYLQMNSLRTEDTALYYCAKDRIEMTFDIWGQGTMVTVSS VL: DIVMTQSPLSSPVTLGQPASISCRSSQSLEHSNGNTYLSWLQQRPGQPPRLLIYKISNRFSGVPDRFSGSGAGTDFTLKISRVEAEDVGVYYCMQTTQFPLTFGGGTKVEIK
89.2%	-0.2%	-1.2%	3.4%	164 nM	5.2 nM	3.23 nM	0.164 nM	no binding (tested: 10 µg/ml)	no binding (tested: 10 µg/ml)	no binding (tested: 10 µg/ml)	0.315 µg/mL			anti-LY6K antibody 3074 (antibody, V domains shown) VH: EVQLVESGGGLVHPGRSLRLSCAASGFTFDDYAMHWVRQAPGKGLEWVSGISWKTNKIDYADSVKGRFTTSRDNAKNSLYLQMNSLRTEDTAFYYCAKDRREMTFDIWGQGTMVTVSS VL: DIVMTQTPLSSPVTLGQPASISCRSSQSLEHSNGNTYLSWLQQRPGQPPRLLIYKISNRFSGVPDRFSGSGAGTDFTLKISRVEAEDVGIYYCMQATQFPLTFGGGTKVEIK
65.2%	71.4%	1%	5.6%		2.86 nM			no binding (tested: 10 µg/ml)	no binding (tested: 10 µg/ml)	no binding (tested: 10 µg/ml)	0.168 µg/mL			anti-LY6K antibody 3035 (antibody, V domains shown) VH: EVQLVESGGGLVQPGGSLKLSCAASGFTFSDSTLHWVRQASGKGLEWVGRIRSKANSYATAYAASVKGRFTISRDDSKNTAYLQMNSLKTEDTAVYYCHNWSYGYWGQGTLVTVSS VL: QTVVTQEPSLTVSPGGTVTLTCASSTGAVTSYYYPNWFQQKPGQAPRTVIYSTTNKHSWTPARFSGSLLGGKAALTLSGVLPEDEADYYCLLFYGGAYVFGTGTKVTVL
67.6%	66.4%	-1.6%	3.1%		3.08 nM	5.66 nM	0.0505 nM	no binding (tested: 10 µg/ml)	no binding (tested: 10 µg/ml)	no binding (tested: 10 µg/ml)	0.0568 µg/mL	0.379 nM		anti-LY6K antibody 3741 (antibody, V domains shown) VH: EVQLVESGGGLVKPGGSLRLSCAASGFTFSSYSMNWVRQAPGKGLEWVSSISSSSNYIYYVDSVKGRFTTSRDNAKNSLYLQMNSLRAEDTAVYYCARQEATGNNYYYYYMDVWGKGTTVTVSS VL: DIQMTQSPSSLSASVGDRVTITCRASQSISNYLNWYQQNLGKAPKVLIYAASSLQSGVPSRFSGSGSGTDFTLTISSLQPEDFATYYCQQTYSTPITFGQGTRLEIK
58.3%	16.7%	0.7%	1.6%		1.56 nM								0.805 nM	anti-LY6K antibody 3075 (antibody, V domains shown) VH: QVQLVQSGSELKRPGASVKVSCKASGYTFIRYAMNWVRQAPGQGLEWMGWINTNTGNPTYAQGFTGRFVLSVDTSVSTAYLQISSLKVEDTAVYYCGRPGISSFEYWGQGTLVTVSS VL: DIQMTQSPSSLSASVGDRVAITCRATQDISNYLDWYQQKPGKAPKLLIYDASNLETGVPSRFSGSGSGTDFTFTINSLQPEDIATYYCQQYDNLPLTFGGGTKVEIK
94.9%	3%	0.6%	2.4%			1.83 nM	0.0264 nM				0.163 µg/mL			anti-LY6K antibody 3101 (antibody, V domains shown) VH: EVQLVESGGGLVQPGRSLRLSCAASGFTFDDYAMHWVRQTPGKGLEWVSGITWKSGNIGYADSVKGRFTISRDNAKNSLYLQMNSLRAEDTALYYCAKDTEAGLDYWGQGTLVTVSS VL: not shown
99.4%	0.2%	0.9%	2.7%	2.84 nM	2.08 nM	1.19 nM	0.0157 nM							anti-LY6K antibody 3481 (antibody, V domains shown) VH: EVQLVESGGGLVQSGRSLRLSCAASGFTFDDYAMHWVRQAPGKGLEWVSGITWKDVTIGYADSVKGRFTISRDNAKNSLYLQMNSLGAEDTALYYCAKDTSDGLDYWGQGTLVTVSS VL: DIVMTQTPLSSPVTLGQPASISCRSSQSLVHSNGNTYLSWLQQRPGQPPRLLIYKISNRFSGVPDRFSGSGAGTDFTLKISRVETEDVGIYYCMQAIQFPYTFGQGTKLEIK
81.2%	0.1%	1.5%	2.5%	3.33 nM	2.65 nM	4.7 nM	0.0428 nM							anti-LY6K antibody 3048 (antibody, V domains shown) VH: EVQLVESGGGLVQPGRSLRLSCAASGFTFDDYAMHWVRQAPGKGLEWVSGITWKSGTIGYADSVKGRFTISRDNAKNSLYLQMNSLRAEDTALYYCAKDSRTGLDYWGQGALVTVSS VL: not shown
95.1%	106%	-0.1%	3.1%	0.364 nM	1.57 nM	3.59 nM	0.00702 nM	no binding (tested: 10 µg/ml)	no binding (tested: 10 µg/ml)	no binding (tested: 10 µg/ml)	0.0756 µg/mL	0.0518 nM		anti-LY6K antibody 2660 (antibody, V domains shown) VH: EVQLVESGGGLVKPGGSLRLSCAASGFTFSDVWMSWVRQAPGKGLEWVGRIKSKTDGGRIDYAAPVKGRFTISRDDSKNTLYLQMNSLKTEDTAVYYCTTVPYSDYWGQGTLVTVSS VL: not shown
43.7%	57.2%	2.5%	4.5%			7.48 nM	0.263 nM	no binding (tested: 10 µg/ml)	no binding (tested: 10 µg/ml)	no binding (tested: 10 µg/ml)		1.39 nM		anti-LY6K antibody 3785 (antibody, V domains shown) VH: QVQLQQSGPGLVKPSQTLSLTCAISGDSVSSNSAAWNWIRQSPSRGLEWLGRTYFRSKWNNDYTLSVKNRITINPDTSKNHFSLQLNSVTPEDTAVYYCAGGGYCNRTYCPDVFDIWGQGTMVTVSS VL: DIQMTQSPSSLSASVGDRVTFTCRSSQSISSYLNWYQQKPGKAPNLLIYVASTLQSGVPSRFSGSGSGTDFTLTISSLQPEDFATYYCQQSYSIPLTFGGGTKVEIK
